Measurements taken from patent US20190031762A1, “POSTERIOR OCULAR FIBROSIS INHIBITION BY ANTAGONIZING PLACENTAL GROWTH FACTOR” (THROMBOGENICS NV, priority 2016, published 2019).

Tests used:
murine PlGF = target: T1, murine PlGF (Mus musculus, UniProt P49764); experiment: Binding of antibody to murine PlGF
T1 sequence (P49764 19-158): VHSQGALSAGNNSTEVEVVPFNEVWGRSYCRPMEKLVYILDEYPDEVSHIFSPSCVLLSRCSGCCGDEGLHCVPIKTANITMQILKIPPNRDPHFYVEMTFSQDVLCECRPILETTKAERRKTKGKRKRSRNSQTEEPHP

human PlGF = target: T2, human PlGF (Homo sapiens, UniProt P49763); experiment: Binding of antibody to human PlGF
T2 sequence (P49763 19-131 limits assumed): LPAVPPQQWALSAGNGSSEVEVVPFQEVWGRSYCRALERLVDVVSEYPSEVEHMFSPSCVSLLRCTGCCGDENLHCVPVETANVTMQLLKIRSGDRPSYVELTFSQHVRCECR

mouse CNV model = experiment: Posterior ocular collagen deposition (Col1a staining) in laser-induced CNV mouse model; type: in vivo; details: repeat experiment (FIG. 4), day 30, 3.1 μg/eye, compared to PBS
Description: Mice (C57BL/6J, male, 8-10 weeks old) were anesthetized by intraperitoneal injection (135 μL) of a mixture of ketamine hydrochloride (Anesketin; […]) and medetomidine (Domitor; 1 mg/mL) and their pupils dilated with one eye drop (50 μL) Tropicamide (Tropicol™; 5 mg/mL; Thea, Research Papers Clermont-Ferrand, France). Three laser burns were placed in one eye with a green laser at the 9, 12, 3 o'clock positions around the optic disk using a slit lamp delivery system with a hand-held cover slide as a contact lens moisturized with Genteal Gel™ (Novartis, Vilvoorde, Belgium). Each spot was placed with a spot size of 100 μm, laser duration of a 50 milliseconds and a power of 320 mW. […] Finally, 300 μL atipamezole (Antisedan; 5 mg/mL) was injected intraperitoneally to reverse the effect of medetomidine and to reduce sedation time.
At different time points after lasering, the compounds were administered intravitreally (IVT). The animal was anesthetized with a mixture of ketamine hydrochloride/medetomidine and the eye was treated with a drop of 0.4% oxybuprocaine (Unicaine; Thea Pharma). Intravitreal injections (1 μL) to one eye according to Tables 1 to 3 were performed by using an analytic science syringe (SGE Analytic Science) and glass capillaries with a diameter of 50-70 μm at the end, controlled by the UMP3I Microsyringe Injector and Micro4 Controller (all from World Precision Instruments Inc., Hertfordshire, UK). Finally, atipamezole (Antisedan) was injected intraperitoneally to reverse the effect of medetomidine and to reduce sedation time.
To analyze the in vivo efficacy of the different compounds, the retina was removed from the dissected posterior segments. These posterior eye cups, which included retinal pigment epithelium (RPE), the choroid and the sclera were stored in phosphate buffered saline (PBS).
To stain for the presence of collagen type 1 (Colla) protein in the laser spots at day 30 after laser, a rabbit anti-collagen antibody (Abcam, 1/270) was used overnight, diluted in Tris-buffered saline (TBS)-Triton 0.5% (v/v) at 4° C. The following day, the tissues were incubated for 2 hours with goat anti rabbit IgG Alexa Fluor 555 (Life Technologies; A-21428), diluted 1/100 in TBS-Triton 0.3% (v/v) at 4° C. The flat mounts of the posterior eye cups were mounted with Prolong Gold with 4′,6-diamidino-2-phenylindole (DAPI, Molecular Probes). Images were obtained using a microscope with a digital camera (Axiocam MrC5; Carl Zeiss, Oberkochen, Germany) at a magnification factor of 20. Morphometric analyses were performed using commercial software (Axiovision; Zeiss, Oberkochen, Germany). The density of collagen deposition was determined by calculating the Colla-positive area as a proportion of the total lesion.
The mouse CNV model as described in Example 2.1 was used. At different time points after lasering, compounds were administered intraperitoneally (IP), or intravitreally (IVT), as indicated in Table 3.

affinity for murine PlGF relative to human PlGF, in words (murine PlGF): lower affinity | binding to human PlGF, in words (human PlGF): binds
B1: 16D3: murine anti-human PlGF-neutralizing antibody, CDRs SEQ ID NOs:1-6; hybridoma deposit LMBP 6399CB (antibody, V domains shown)
VH: QVQLQQSGAELVKPGASVKISCKASGYTFTDYYINWVKLAPGQGLEWIGWIYPGSGNTKYNEKFKGKATLTIDTSSSTAYMQLSSLTSEDTAVYFCVRDSPFFDYWGQGTLLTVSS
VL: DIVLTQSPDSLAVSLGERVTMNCKSSQSLLNSGMRKSFLAWYQQKPGQSPKLLIYWASTRESGVPDRFTGSGSGTDFTLTISSVQAEDVAVYYCKQSYHLFTFGSGTKLEIK
modifications: humanized heavy chain amino acid sequence of neutralizing anti-PlGF antibody; humanized light chain amino acid sequence of neutralizing anti-PlGF antibody
notes: hybridoma deposit LMBP 6399CB
effect on collagen deposition / fibrosis, in words (mouse CNV model): significantly decreased collagen deposition | reduction in collagen deposition (Col1a) (mouse CNV model; IVT D0, 4, 10 and 20): 34%
